Experimental data reported in US20030144191.

B1: TRP-PLIK2-GST fusion protein (TRP-PLIK2 kinase domain fused to GST) (protein)
chain: PMTMSSPLSQAKIMQTGGGYVNWAFSEGDETGVFSIKKKWQTCLPSTCDSDSSRSEQHQKQAQDSSLSDNSTRSAQSSECSEVGPWLQPNTSFWINPLRRYRPFARSHSFRFHKEEKLMKICKIKNLSGSSEIGQGAWVKAKMLTKDRRLSKKKKNTQGLQVPIITVNACSQSDQLNPEPGENSISEEEYSKNWFTVSKFSHTGVEPYIHQKMKTKEIGQCAIQISDYLKQSQEDLSKNSLWNSRSTNLNRNSLLKSSIGVDKISASLKSPQEPHHHYSAIERNNLMRLSQTIPFTPVQLFAGEEITVYRLEESSPLNLDKSMSSWSQRGRAAMIQVLSREEMDGGLRKAMRVVSTWSEDDILKPGQVFIVKSFLPEVVRTWHKIFQESTVLHLCLREIQQQRAAQKLIYTFNQVKPQTIPYTPRFLEVFLIYCHSANQWLTIEKYMTGEFRKYNNNNGDEITPTNTLEELMLAFSHWTYEYTRGELLVLDLQGVGENLTDPSVIKPEVKQSRGMVFGPANLGEDAIRNFIAKHHCNSCCRKLKLPDLKRNDYSPERINSTFGLEIKIESAEEPPARETGRNSPEDDMQL
For B1, the “32P incorporation (kinase assay, SDS-PAGE, autoradiography)” value (Histon) was “MBP was determined to be a preferred substrate over Histon”, the “32P incorporation (kinase assay, SDS-PAGE, autoradiography)” value (MBP) was “MBP was determined to be a preferred substrate over Histon” and the “incorporated 32P in the substrate (kinase assay, SDS-PAGE, autoradiography)” value (MBP) was “predicted TRP-PLIK2 kinase domain was determined to have kinase activity as demonstrated by the phosphorylated MBP protein”.
